The numbers were not newly measured in paper PMC5371383, which cites them from elsewhere.

In one series the target is MC1R (Homo sapiens) (UniProt Q01726).
For a further series, the target named is MC1R (Gallus gallus) (UniProt P55167).
Chain of UniProt P55167 (P55167 whole entry): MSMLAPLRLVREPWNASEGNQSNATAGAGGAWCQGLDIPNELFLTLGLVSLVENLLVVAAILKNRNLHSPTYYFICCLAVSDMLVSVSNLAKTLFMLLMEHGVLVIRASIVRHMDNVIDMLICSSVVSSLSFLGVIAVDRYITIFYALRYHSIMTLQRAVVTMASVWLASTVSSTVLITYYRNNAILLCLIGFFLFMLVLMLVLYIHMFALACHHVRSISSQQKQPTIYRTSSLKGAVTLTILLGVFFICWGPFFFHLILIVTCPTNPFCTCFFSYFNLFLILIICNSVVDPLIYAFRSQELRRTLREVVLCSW

Chain of UniProt Q01726 (Q01726 whole entry): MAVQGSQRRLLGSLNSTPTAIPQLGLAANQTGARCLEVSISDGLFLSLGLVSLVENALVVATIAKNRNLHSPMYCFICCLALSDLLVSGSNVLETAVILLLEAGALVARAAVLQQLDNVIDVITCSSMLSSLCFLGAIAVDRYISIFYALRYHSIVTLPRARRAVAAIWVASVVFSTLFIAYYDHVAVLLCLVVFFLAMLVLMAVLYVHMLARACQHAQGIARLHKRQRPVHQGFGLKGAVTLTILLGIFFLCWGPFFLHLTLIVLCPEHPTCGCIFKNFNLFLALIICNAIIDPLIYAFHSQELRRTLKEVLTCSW

Regarding α-MSH (from UniProt P01189), the Kd (usually a measure of binding affinity in units of concentration) with MC1R (Homo sapiens) was 0.21 nM; with MC1R (Gallus gallus), 363 nM.
